Assay results: US12624096B2, “Anti-tau antibodies and methods of use thereof” (GTInvent Limited, priority 2020, dated 2026)

Legend:
Format in all cases: binding
hT40 = hT40 (Homo sapiens, UniProt P10636); test: Biacore X100 SPR, scAb captured via anti-HuCk, hT40 as analyte; conditions: scAb, Table 23, T441 (hT40)
In short: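 Captured scAb on anti-HuCk CM5 surface (flow cell 1 as reference) in HBS-EP+, capture set for theoretical RMax 100 RU; hT40 injected multi-cycle (0.15625–100 nM) or single-cycle (6.25–100 nM), 120 s association, 420 s dissociation, glycine pH 2.0 regeneration. Kinetics and affinity from 1:1 binding model fit.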

htau40 = htau40 (Homo sapiens, UniProt P10636); test: Biacore X100 SPR of anti-tau mAbs on immobilised htau40; conditions: mAb, Table 27, immobilised hT40
Chain of htau40 (P10636 1-441 isoform P10636-8): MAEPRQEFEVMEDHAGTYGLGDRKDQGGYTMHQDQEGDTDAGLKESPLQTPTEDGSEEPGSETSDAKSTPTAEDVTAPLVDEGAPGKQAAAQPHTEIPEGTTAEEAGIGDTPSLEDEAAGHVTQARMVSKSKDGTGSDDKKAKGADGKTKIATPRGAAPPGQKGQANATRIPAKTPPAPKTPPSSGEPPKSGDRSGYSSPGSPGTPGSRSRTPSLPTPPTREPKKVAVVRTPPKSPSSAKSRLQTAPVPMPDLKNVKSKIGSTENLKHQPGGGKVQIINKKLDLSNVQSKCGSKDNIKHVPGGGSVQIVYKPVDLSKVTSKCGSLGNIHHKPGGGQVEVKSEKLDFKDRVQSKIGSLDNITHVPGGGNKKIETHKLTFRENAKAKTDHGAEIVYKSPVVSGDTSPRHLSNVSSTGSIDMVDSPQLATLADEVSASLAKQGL
In short: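 htau40 amine-coupled to a CM5 chip (~250 RU); mAb injected at 0.78–25 nM in HBS-EP+ at 30 μL/min, 120 s association, 600 s dissociation, glycine pH 1.5 regeneration. Kinetics and affinity from 1:1 binding fit with reference-cell subtraction.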

[1] = tested on: tau protein in brain homogenate; test: Capture ELISA on transgenic mouse brain lysates; conditions: S1D12 mAb capture; WT, L1, L66+/- and L66+/+
Protocol: Mouse brain lysates were prepared from wildtype, Line 1, Line 66+/+ and Line 66+/− (Melis et al., 2015, all surplus from Charles River, part of study R0144). All animals were female, 7-8 months old except Line 66+/+ which were 5 months old. […] The L1 cDNA construct (FIG. 23) contains human tau cDNA coding for amino acid residues 296-390 with a signal sequence and related sequences in a murine Thy-1 expression cassette. For brain lysate preparation, half brains were sectioned into four and the individual sections were homogenised in 400 μl of ice cold RIPA buffer (Cell signalling Technology) containing protease and phosphatase inhibitors. Total protein concentrations for individual samples were established by BCA-assay and each sample was subsequently diluted to 1 mg/ml for future experiments.
For capture ELISA, 100 µL S1D12 capture mAb was used to coat a nunc 96 well Maxisorp plate at 1 μg/ml and incubated for 1 hour at 37° C. Plate was washed as previously and then blocked for 1 hour at 37° C., in 2% MPBS. Brain homogenate samples (50 ng total protein) from each mouse type were added to the first wells and double diluted across the plate in PBS. These samples were left to incubate at RT for 1 hour. Various detection scAbs encompassing epitopes of interest were then added to the plate at 1 μg/ml and incubated for 1 h at RT. […]

tau fragments in plasma = test: Capture ELISA on transgenic mouse plasma; conditions: detection scAb, Line66 transgenic model
Protocol: Plasma samples from WT, L1, L66+/− and L66^+/+ of various ages (1.5-9 months) were taken as described. Mice were terminally anaesthetized using an overdose of sodium pentobarbital and blood was collected through cardiac puncture through a Plastipak syringe pre-rinsed with heparinised saline heparin (10 U/ml) (Heparin sodium salt; Sigma-Aldrich) and transferred into a plastic vial containing lithium heparin anticoagulant (Sarstedt Ltd.) Blood samples, kept on ice for no more than 30 minutes, were centrifuged to obtain plasma at 2000× g for 5 minutes at 6° C. Plasma samples were stored at −20° C.
For mouse plasma capture ELISA, 100 μL capture mAb was coated to the bottom of a black nunc 96 well ‘maxisorp’ plate at 2.5 μg/ml and incubated for 1 hour at 37° C. After washing and blocking as normal, several known standard solutions were set up in triplicate starting at 20 ng/ml of the desired protein before double diluted in the remaining wells. Mouse samples were added to wells in duplicate with a blank in between each sample group. Line1 plasma was diluted 1:10 before addition to plate to account for its high concentration while other samples were diluted 1:2 to account for potential matrix effects. […] The ELISA was developed using SuperSignal ELISA Femto Substrate (Thermo Scientific) and total luminescence was read on Clariostar Plus plate reader (BMG Labtech). […]

human tau and mouse tau = test: Western blot of WT, L66+/+ and L1+/+ mouse brain homogenates; conditions: 20 μg protein, 5-month-old mice
Protocol: Protein equivalent to 20 μg from each brain extract was separated using 4-20% bis-tris gels and run in 1×MES buffer.
A band is detected in each sample (WT, L66^+/+ and L1^+/+) with an apparent molecular weight of approximately 55 kDa. This band most likely corresponds to endogenous mouse tau which is of a similar size. In the L66^+/+ samples, a second band running at approximately 68 kDa is also detected. The presence of numerous other bands indicates proteolytic truncation of tau within brain homogenates.

Chain of hT40 (P10636 1-441 isoform P10636-8): as above

B1: CB7: anti-tau clone, SEQ ID NO: 364 (protein)
scFv: QVQLQESGPSLVKPSQTLSLTCTVSGFSLTNYRVGWVRQAPGKALEWVSNIRSGGTTWYNPALKSRLSITADTSKSQVSLSLSSVTTEDTAVYYCARDSSGDLYAYDYWGPGLLVTVSSEGKSSGASGESKVDDQAVLTQPSSVSRSLGQSVSMTCSGSSSNVGYGNYMAWFQQVPGSAPKLLIYGATSRASGVPDRFSGSRSGNTATLTISSLQAEDEADYYCASYDSTSGGVFGSGTRLTVLG
modifications: CB7 amino acid sequence
ka (hT40): 133400 M⁻¹ s⁻¹
kd (hT40): 0.0006936 s⁻¹
ka (htau40): 2.568e+06 M⁻¹ s⁻¹
kd (htau40): 0.009451 s⁻¹
tau detection in mouse brain homogenate [1]: hT40 tau was specifically detected in L66 samples
cross reaction with endogenous mouse tau protein (tau fragments in plasma): does not cross react with endogenous mouse tau protein
bands detected in western blot of WT, L66+/+ and L1+/+ brain homogenates (human tau and mouse tau): show specificity for human tau
